Changes are numbered by the printed parent chain. One block for each binder: values may come before it.
Molecular target: human TREM2 extracellular domain (ECD) (Homo sapiens, UniProt Q9NZC2)
Sequence (Q9NZC2 19-174): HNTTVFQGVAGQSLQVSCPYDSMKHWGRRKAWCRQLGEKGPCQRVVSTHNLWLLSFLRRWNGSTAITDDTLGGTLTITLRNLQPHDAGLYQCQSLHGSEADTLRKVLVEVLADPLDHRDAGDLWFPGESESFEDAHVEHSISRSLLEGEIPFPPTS

B1: R18-11-01 (antibody, V domains shown)
VH: AVQLVESGGGLVQPKESLKISCAASGFTFINAAIYWVRQAPGKGLEWVARIRTKPDNYATYYADSVKGRFTISRDDSKSMVYLQMHNLKTEDTAMYYCTAATTGIKFDYWGQGVMVTVSA
VL: DIVMTQSPSSLAVSAGETVTIDCKSSQSLLYSGNQKTYLAWYQQKPGQSPKLLIYWASTRQSGVPDRFIGSGSGTDFTLTISSVQAEDLAIYYCQQYYDTPLTFGSGTKLEIK
binding result: binds

B2: R18-12-21 (antibody, V domains shown)
VH: AVQLVESGGGLVQPKESLKLSCAASGFTFSDAAMYWVRQAPGKGLEWVARIRTKPNNYATYYADSVKGRFTISRDDSKSMVYLQMDNLKTEDTAMYYCTALFLIVAPFAYWGQGTLVTVSS
VL: B1 VL
binding result: binds

B3: R18-11-03 (antibody, V domains shown)
VH: AVQLVESGGGLVRPKESLKISCAASGFTFSNAAMYWVRQAPGKGLEWVARIRSKPNNYATHYADSVKGRFIISRDDSKGMVYLQMDNLKTEDTAKYYCTAAGGGYGFDDWGQGVMVTVSS
VL: B1 VL
binding result: binds

B4: R18-11-05 (antibody, V domains shown)
VH: AVQLVESGGGLVQPKASLKISCVASGFTFSKNAMYWVRQAPGKGLEWVARIRTKPNNYAAYYADSVKGRFTISRDDSESMVYLQMDNLKTEDTAMYYCTAGDFNSPFDFWGQGVMVTVSS
VL: B1 VL
binding result: binds

B5: R18-12-18 (antibody, V domains shown)
VH: AVQLVESGGGLVQPKESLKISCAASGFTFRNAAMFWVRQAPGKGLEWVARIRTKPNNFATYYADSVKGRFTISRDDSKSMVYLQMDNLKTEDTAMYYCTGFYNDGAPFDYWGQGTLVTVSS
VL: B1 VL
binding result: binds

B6: R18-11-02 (antibody, V domains shown)
VH: AVQLVESGGGLVQPKESLKISCAASGFTFSNAAMYWVRQAPGKGLEWVARIRTKPNNYATYYADSMKGRFTISRDDSKSMVYLQMGNLKTEDTAMYYCTAELITTAFDYWGQGVMVTVSS
VL: B1 VL
binding result: binds

B7: R18-12-20 (antibody, V domains shown)
VH: B2 VH with L20I, F29L, D31T, A32V, T60I, L101P, F102G, L103I, V105R
VL: B1 VL
binding result: binds

B8: R18-11-13 (antibody, V domains shown)
VH: AVQLVESGGGLVQPKESLKISCAASGFTFSNVAMYWVRQAPRKGLEWVARIRTKPNNYATYYADSVKGRFTISRDDSKSMVYLQMDNLKTDDTAMYYCTAGVYYGSMDAWGQGTSVTVSS
VL: B1 VL
binding result: binds

B9: R18-11-11 (antibody, V domains shown)
VH: AVQLVESGGGLVQPKESLKISCAASGFTFSNAAMHWVRQAPGKGLEWVARIRTRPNNYATYYADSVKGRFTISRDDSKSMVYLQMDNLKTEDTAMYYCTAGTGSSPFAYWGQGTLVTVSS
VL: B1 VL
binding result: binds

B10: R18-12-24 (antibody, V domains shown)
VH: B2 VH with L20I, D31N, L101D, F102Y, L103S, I104S, V105Y, A106I, P107R
VL: B1 VL
binding result: binds

Other lines, results leading:

binding result: binds
B11: R18-12-25 (antibody, V domains shown)
VH: AVQLVESGGGLVRPQESLKISCAASGFTFRDTAMYWVRQAPGKGLEWVARIRTKPNDYATYFADSVKGRFTISRDDSKSMVYLQMDTLKTEDTAMYYCTAPINNWDWFAYWGQGTLVTVSS
VL: B1 VL

binding result: binds
B12: R18-11-06 (antibody, V domains shown)
VH: AVQLVESGGGLVQPKESLKISCAASGFTFSNAAMYWVRQAPGKGLEWVARIRTQPNNYATYYADSVKGRFTISRDDSKSVVYLQMDNLKTADTAMYYCTAGYGYNLFDYWGQGVMVTVSS
VL: B1 VL

binding result: binds
B13: R18-12-19 (antibody, V domains shown)
VH: B2 VH with L20I, D31N, A63T, L101E, F102G, L103S, I104S, V105R, A106N, P107W
VL: B1 VL

binding result: binds
B14: R18-11-08 (antibody, V domains shown)
VH: B9 VH with H35Y, R54K, G101A, T102Y, G103Y, S105G
VL: B1 VL

binding result: binds
B15: R18-11-10 (antibody, V domains shown)
VH: AVQLVESGGGVVRPKESLRISCAASGFTFSNVAMYWVRQAPGKGLEWVARIRTKPNNYATNYADSVKGRFTISRDDSNSMVNLQMENLKTEDTAMYYCTAVGGHNWFAYWGQGTLVTVSS
VL: B1 VL

binding result: binds
B16: R18-12-22 (antibody, V domains shown)
VH: B2 VH with L20I, D31N, M34I, L101G, F102Y, L103Y, I104S, V105G, A106G
VL: B1 VL

binding result: binds
B17: R18-12-14 (antibody, V domains shown)
VH: AVQLVESGGGLVQPKESLKISCAVSGFTFTNAAMYWVRQAPGKGLEWIARIRTQPNNYATYYADSVRGRFTTSRDDSKSMVYLQMDNLKTEDTAMYYCTAGRATGTPFDYWGQGVMVTVSS
VL: B1 VL

binding result: binds
B18: R18-12-23 (antibody, V domains shown)
VH: AVQLVESGGGLVQPKESLKISCAASAFSFSNVAMYWVRQAPGKGLEWIARIRTKPNNYATYYADSVKGRFTISREDSKSMVYLQMDNLKTEDTATYYCTADNYPGGGFRYWGQGTLVTVSS
VL: B1 VL

binding result: binds
B19: R18-11-12 (antibody, V domains shown)
VH: AVQLVESGGGLVQPKESVKISCAASGFTFSNAAMYWVRQAPGKGLEWIARIRSKPHNHATYYADSVKGRFTISRDDSESMVYLQMDNLKTEDTAMYYCTSDTGPNWFTYWGQGTLVTVSS
VL: B1 VL

binding result: binds
B20: R18-11-07 (antibody, V domains shown)
VH: AVQLVESGGGLVQPKESLRISCAASGFTFSNAAMYWVRQAPGKGLEWVARIRTKPNSYAPYYADSVRGRFTISRDDSKSMVYLQMDNLKTEDTAMYYCTAGGNSGYSDYWGQGVMVTVSS
VL: B1 VL

binding result: binds
B21: R18-11-04 (antibody, V domains shown)
VH: AVQLVESGGGLVQPKESLKISCAASGFTFSNAAMYWVRQAPGKGLEWVARIRTQPNNYATYYADSVKGRFTISRDDAKSMVYLQMDNLKTEDTAMYYCTAGTVEVTSTWWGQGVMVTVSS
VL: B1 VL

binding result: binds
B22: R18-12-17 (antibody, V domains shown)
VH: AVQLVESGGGLVKPKESLKISCAASGFTFSNAAMYWVRQAPGKGLDWVARIRTKPYNYATFYADSVKGRFTISRDDSKNMVYLQMDNLKTEDTAVYYCTTDGEPRPRFAYWGQGTLVTVSS
VL: B1 VL

— paper PMC11437124 (Nature Communications, 2024)
